To fix the notation:
B2: ADAMTS-7-FLAG (enzyme)
chain: APGPAPGRATEGRAALDIVHPVRVDAGGSFLSYELWPRALRKRDVSVRRDAPAFYELQYRGRELRFNLTANQHLLAPGFVSETRRRGGLGRAHIRAHTPACHLLGEVQDPELEGGLAAISACDGLKGVFQLSNEDYFIEPLDSAPARPGHAQPHVVYKRQAPERLAQRGDSSAPSTCGVQVYPELESRRERWEQRQQWRRPRLRRLHQRSVSKEKWVETLVVADAKMVEYHGQPQVESYVLTIMNMVAGLFHDPSIGNPIHITIVRLVLLEDEEEDLKITHHADNTLKSFCKWQKSINMKGDAHPLHHDTAILLTRKDLCAAMNRPCETLGLSHVAGMCQPHRSCSINEDTGLPLAFTVAHELGHSFGIQHDGSGNDCEPVGKRPFIMSPQLLYDAAPLTWSRCSRQYITRFLDRGWGLCLDDPPAKDIIDFPSVPPGVLYDVSHQCRLQYGAYSAFCEDMDNVCHTLWCSVGTTCHSKLDAAVDGTRCGENKWCLSGECVPVGFRPEAVDGGWSGWSAWSICSRSCGMGVQSAERQCTQPTPKYKGRYCVGERKRFRLCNLQACPAGRPSFRHVQCSHFDAMLYKGQLHTWVPVVNDVNPCELHCRPANEYFAEKLRDAVVDGTPCYQVRASRDLCINGICKNVGCDFEIDSGAMEDRCGVCHGNGSTCHTVSGTFEEAEGLGYVDVGLIPAGAREIRIQEVAEAANFLALRSEDPEKYFLNGGWTIQWNGDYQVAGTTFTYARRGNWENLTSPGPTKEPVWIQLLFQESNPGVHYEYTIHREAGGHDEVPPPVFSWHYGPWTKCTVTCGRGVQRQNVYCLERQAGPVDEEHCDPLGRPDDQQRKCSEQPCPARWWAGEWQLCSSSCGPGGLSRRAVLCIRSVGLDEQSALEPPACEHLPRPPTETPCNRHVPCPATWAVGNWSQCSVTCGEGTQRRNVLCTNDTGVPCDEAQQPASEVTCSLPLCRWPLGTLGPEGSGSGSSSHELFNEADFIPHHLAPRPSPASSPKPGTMGNAIEEEAPELDLPGPVFVDDFYYDYNFINFHEDLSYGPSEEPDLDLAGTGDRTPPPHSHPAAPSTGSPVPATEPPAAKEEGVLGPWSPSPWPSQAGRSPPPPSEQTPGNPLINFLPEEDTPIGAPDLGLPSLSWPRVSTDGLQTPATPESQNDFPVGKDSQSQLPPPWRDRTNEVFKDDEEPKGRGAPHLPPRPSSTLPPLSPVGSTHSSPSPDVAELWTGGTVAWEPALEGGLGPVDSELWPTVGVASLLPPPIAPLPEMKVRDSSLEPGTPSFPTPGPGSWDLQTVAVWGTFLPTTLTGLGHMPEPALNPGPKGQPESLSPEVPLSSRLLSTPAWDSPANSHRVPETQPLAPSLAEAGPPADPLVVRNAGWQAGNWSECSTTCGLGAVWRPVRCSSGRDEDCAPAGRPQPARRCHLRPCATWHSGNWSKCSRSCGGGSSVRDVQCVDTRDLRPLRPFHCQPGPAKPPAHRPCGAQPCLSWYTSSWRECSEACGGGEQQRLVTCPEPGLCEEALRPNTTRPCNTHPCTQWVVGPWGQCSGPCGGGVQRRLVKCVNTQTGLPEEDSDQCGHEAWPESSRPCGTEDCEPVEPPRCERDRLSFGFCETLRLLGRCQLPTIRTQCCRSCSPPSHGAPSRGHQRVARR

Experiment in all cases: AlphaScreen or HTRF
For orientation: Bead proximity is the source of the signal in Alpha formats.

The target in the experiment “ADAMTS-7-FLAG” is B2.
Experiment [1] deals with T1, TIMP-1-HA (human, UniProt P01033 24-207).
T1 sequence (P01033 24-207): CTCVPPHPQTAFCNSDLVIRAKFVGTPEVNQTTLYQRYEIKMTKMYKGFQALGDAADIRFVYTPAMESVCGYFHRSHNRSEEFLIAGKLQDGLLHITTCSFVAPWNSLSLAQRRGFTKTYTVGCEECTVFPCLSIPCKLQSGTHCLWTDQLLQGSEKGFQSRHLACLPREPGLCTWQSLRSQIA
The target of experiment [2] is T1, TIMP-1-HA. The source holds these as a separate data set.

B1: untagged, recombinant TIMP-1 (natural protein)
chain: not shown
Take B1: in the experiment with ADAMTS-7-FLAG, the “FRET ratio (665/620) of ADAMTS-7-FLAG and TIMP-1-HA with 400 ng untagged TIMP-1” value was 4420 665/620 ratio; the “FRET ratio (665/620) of ADAMTS-7-FLAG and TIMP-1-HA with 800 ng untagged TIMP-1” value is 3570 665/620 ratio.
B2: in the experiment with TIMP-1-HA [1], the “FRET ratio (665/620) with 0 ng untagged TIMP-1” value is 4950 665/620 ratio. Further, the “FRET ratio (665/620)” value with TIMP-1-HA [2] is 5480 665/620 ratio.
